{
  "source": "the DeepSol protein solubility set",
  "data": [
    {"assay": "soluble on expression in E. coli; label from the status in PepcDB or PDB records", "values": [
      {"sequence": "MRGSHHHHHHGSACMFSNKTRQDSIQKMQQEELDLLIIGGGITGAGVAVQAAASGIKTGLIEMQDFAEGTSSRSTKLVHGGIRYLKTFDVEVVADTVGERAVVQGIAPHIPKPDPMLLPIYEDEGATTFNMFSVKVAMDLYDKLANVTGTKYENYTLTPEEVLEREPFLKKEGLKGAGVYLDFRNNDARLVIDNIKKAAEDGAYLVSKMKAVGFLYEGDQIVGVKARDLLTDEVIEIKAKLVINTSGPWVDKVRNLNFTRPVSPKMRPTKGIHLVVDAKKLPVPQPTYFDTGKQDGRMVFAIPRENKTYFGTTDTDYQGDFTDPKVTQEDVDYLLDVINHRYPEANITLADIEASWAGLRPLLIGNSGSPSTISRGSSLEREPDGLLTLSGGKITDYRKMAEGALRLIRQLLKEEYGIETKEIDSKKYQISGGNFDPTKLEETVTELAKEGVAAGLEEEDATYIADFYGTNARRIFELAKEMAPYPGLSLAESARLRYGLEEEMVLAPGDYLIRRTNHLLFERDQLDEIKQPVIDAIAEYFGWTEEEKAQQTKRLEALIAESDLRELKGEK", "soluble on expression in E. coli": "soluble"},
      {"sequence": "MGHHHHHHSHPPEKHLGIYSVLPNHKADAVLSMPSSVTSGLHVQPALAVSMDFSTYGGLLPQGFIQRELFSKLGELAVGMKSESRTIGEQCSVCGVELPDNEAVEQHRKLHSGMKTYGCELCGKRFLDSLRLRMHLLAHSAGAKAFVCDQCGAQFSKEDALETHRQTHTGTD", "soluble on expression in E. coli": "soluble"},
      {"sequence": "MTDEERIELQQNNPLHGLKLETMLQELVDFYGWDILDTAMRFNCFNTKPSIASSVKYLKKTEWAREKLENFYLYRFKRMPRASEEEYNLPPRARTFPHGLEPKEPMPLTVDSILNSQAKAASSFKKRSSRGRPTRRLEHHHHHH", "soluble on expression in E. coli": "soluble"},
      {"sequence": "MSRPLGFIGYEFGDDEMFVQQMIEKKSNAEQAKMLEQQKKMLECTETMPEESEPVPMKCLDFEEAFQSESVSKGYESPYKNISFLKEDAVTVNTMSHCPADDIAKLIRNIQNSVYTLGIEEARQCRRGKLLNVLKPTGSASPRYLQPTPPKNVAEETTGSQ", "soluble on expression in E. coli": "not soluble"},
      {"sequence": "MHHHHHHSSGVDLGTENLYFQSMKYILVTGGVISGIGKGIIASSVGTILKSCGLHVTSIKIDPYINIDAGTFSPYEHGEVFVLDDGGEVDLDLGNYERFLDIRLTKDNNLTTGKIYQYVINKERKGDYLGKTVQVVPHITDAIQEWVMRQALIPVDEDGLEPQVCVIELGGTVGDIESMPFIEAFRQFQFKVKRENFCNIHVSLVPQPSSTGEQKTKPTQNSVRELRGLGLSPDLVVCRCSNPLDTSVKEKISMFCHVEPEQVICVHDVSSIYRVPLLLEEQGVVDYFLRRLDLP", "soluble on expression in E. coli": "soluble"},
      {"sequence": "GAMEATEIISTLSNGLIASHYGVSFFTIQSFVSSLSNTSTLKNMLYVLSTAVEFESVPLRKGDRALLVKLSKRLPLRFPEHTSSGSVSFKVFLLLQAYFSRLELPVDFQNDLKDILEKVVPLINVVVDILSANGYLNATTAMDLAQMLIQGVWDVDNPLRQIPHFNNKILEKCKEINVETVYDIMALEDEERDEILTLTDSQLAQVAAFVNNYPNVELTYSLNNSDSLISGVKQKITIQLTRDVEPENLQVTSEKYPFDKLESWWLVLGEVSKKELYAIKKVTLNKETQQYELEFDTPTSGKHNLTIWCVCDSYLDADKELSFEINVK", "soluble on expression in E. coli": "soluble"},
      {"sequence": "SEEDAGNGGFRKRMRASDEEGKGDSRDGISLDHTIENEEAETKLVASDEMELSIAQILDKIESFTQTVSNLLETGKTMLKELSNEFEERLIMIHKEHVEKWQDEIKELRLLDASNEETTSLLHNARYLIQNPSIEQ", "soluble on expression in E. coli": "soluble"},
      {"sequence": "MGSDKIHHHHHHMSGHKCSYPWDLQDRYAQDKSVVNKMQQKYWETKQAFIKATGKKEDEHVVASDADLDAKLELFHSIQRTCLDLSKAIVLYQKRICFLSQEENELGKFLRSQGFQDKTRAGKMMQATGKALCFSSQQRLALRNPLCRFHQEVETFRHRAISDTWLTVNRMEQCRTEYRGALLWMKDVSQELDPDLYKQMEKFRKVQTQVRLAKKNFDKLKMDVCQKVDLLGASRCNLLSHMLATYQTTLLHFWEKTSHTMAAIHESFKGYQPYEFTTLKVWKLEGPLENLEKSKVLFISQAKSIAESIIIPGLRMLKRELCPQQSLFLSFFLFFYCIRIQYNENLLQSKSAN", "soluble on expression in E. coli": "not soluble"}
    ]}
  ]
}
